Source: article PMC5805371

Molecular target: MYC-tagged TNPO1 (UniProt Q92973)
Assay: co-immunoprecipitation with luciferase readout (anti-MYC IP)
Conditions: HEK293 cells expressing MYC-TNPO1 and PER1PY/Cys_mut-LUCIFERASE; control IgG IP (filled bar) est. 0.75 ± 0.19; n.s.; means ± SD of five; read off a plot

Chain of UniProt Q92973 (Q92973 whole entry): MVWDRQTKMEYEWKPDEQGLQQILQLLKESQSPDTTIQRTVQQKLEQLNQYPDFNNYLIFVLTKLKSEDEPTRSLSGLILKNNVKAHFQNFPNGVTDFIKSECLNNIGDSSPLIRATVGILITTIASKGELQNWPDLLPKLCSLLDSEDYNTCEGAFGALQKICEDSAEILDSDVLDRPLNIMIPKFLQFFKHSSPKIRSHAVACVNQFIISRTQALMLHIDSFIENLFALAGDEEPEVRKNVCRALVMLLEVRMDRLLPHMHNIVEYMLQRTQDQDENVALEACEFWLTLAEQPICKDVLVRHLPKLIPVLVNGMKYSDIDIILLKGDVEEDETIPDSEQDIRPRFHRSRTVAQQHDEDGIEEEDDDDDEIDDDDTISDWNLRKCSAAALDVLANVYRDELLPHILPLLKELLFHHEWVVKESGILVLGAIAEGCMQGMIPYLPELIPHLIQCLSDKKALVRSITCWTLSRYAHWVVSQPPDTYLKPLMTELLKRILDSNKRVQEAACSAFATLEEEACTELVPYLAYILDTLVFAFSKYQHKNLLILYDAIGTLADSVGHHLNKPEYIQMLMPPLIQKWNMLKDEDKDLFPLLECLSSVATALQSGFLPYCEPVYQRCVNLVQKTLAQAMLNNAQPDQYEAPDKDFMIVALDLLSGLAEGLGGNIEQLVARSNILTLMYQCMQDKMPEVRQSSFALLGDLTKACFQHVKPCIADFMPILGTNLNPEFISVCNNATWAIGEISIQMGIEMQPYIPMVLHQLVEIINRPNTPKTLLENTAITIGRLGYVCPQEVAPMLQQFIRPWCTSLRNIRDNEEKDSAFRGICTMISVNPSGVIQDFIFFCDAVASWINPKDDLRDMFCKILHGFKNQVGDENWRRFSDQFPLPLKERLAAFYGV

response: 0.75
Substance: PER1 fused to full-length firefly luciferase (HEK293) (from UniProt O15534) P883A; Y884A; P935A; Y936A; seven C-terminal Cys to Ala (positions not printed)
